Reference: publication PMC3605678

Target: ERK5ΔC385–399 (human) (UniProt Q13164)
Experiment: fluorescence polarisation

MKK5 PB1-D construct (16–130), unlabeled, sequence (Q13163 16-130): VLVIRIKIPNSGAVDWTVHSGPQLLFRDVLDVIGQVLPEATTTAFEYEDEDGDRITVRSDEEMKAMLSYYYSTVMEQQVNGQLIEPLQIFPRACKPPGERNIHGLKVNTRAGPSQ

fold reduction of binding affinity against the wild-type pair: 20 fold
Substance: MKK5 PB1-D construct (16–130), unlabeled (from UniProt Q13163 16-130) (domain or fragment)
